Assays:
[1] = target: HIS-gG3PD (full-length gG3PD, N-terminal 6xHIS-tagged) (Giardia duodenalis (isolate WB clone C6)); test: native gel or EMSA; 3-12% Blue Native PAGE of purified HIS-tagged recombinant proteins (1 μg by the methods, 3 μmol by the legend), silver stain or anti-HIS blot
[2] = target: HIS-gG3PD_C (C-terminal half of gG3PD, N-terminal 6xHIS-tagged) (Giardia duodenalis (isolate WB clone C6)); test: as above

stoichiometry N [1] | stoichiometry N [2] | Substance
2 | – | HIS-gG3PD (full-length gG3PD, N-terminal 6xHIS-tagged) (enzyme)
– | 2 | HIS-gG3PD_C (C-terminal half of gG3PD, N-terminal 6xHIS-tagged) (domain or fragment)

Reference: publication PMC4450592
